Source: the DeepSol protein solubility set

Test: soluble on expression in E. coli; label from the status in PepcDB or PDB records

Soluble on expression in E. coli, not soluble:
MGSDKIHHHHHHMRVKYFGTDGIRGIFGETLTDELAFKVGKALGEIVGEGKVIVGKDTRVSGDSLEAAISAGLTSMGVDVLLCGILPTPAVALLTRITRSFGVVISASHNPPEYNGIKVLKGGYKIPDEMEAEIEKRLENGSFLTRSVVGRTKSFREGRDMYIGAVLEMFRDLDLTGEMVSLDLANGATTTTAREVFEFLGAKVEVFNDSQDGLLINQGCGATHPRFLAEEMKNGKVGFTFDGDGDRVIAVDEERNVVNGDRIIGILAVGLKEEGRLNSDTVVGTVMTNGGLEDFLKEKGIRLLRTKVGDKYVLEKMLESGANLGGERSGHIIILDRSTTGDGLITALELMRVLKRSGRKLSDFAKEIPDYPQITKNVRRTERMSLENENLRKIVEESTSRGYRVVIRPSGTEPVIRITVEGKDREEIEKIVEEISRVLES, MGSDKIHHHHHHMRVYFDNNATTRVDDRVLEEMIVFYREKYGNPNSAHGMGIEANLHMEKAREKVAKVLGVSPSEIFFTSCATESINWILKTVAETFEKRKRTIITTPIEHKAVLETMKYLSMKGFKVKYVPVDSRGVVKLEELEKLVDEDTFLVSIMAANNEVGTIQPVEDVTRIVKKKNKETLVHVDAVQTIGKIPFSLEKLEVDYASFSAHKFHGPKGVGITYIRKGVPIRPLIHGGGQERGLRSGTQNVPGIVGAARAMEIAVEELSEAAKHMEKLRSKLVSGLMNLGAHIITPLEISLPNTLSVSFPNIRGSTLQNLLSGYGIYVSTSSACTSKDERLSHVLDAMGVDRRIAQGAIRISLCKYNTEEEVDYFLKKIEEILSFLDLTGNNRR, MGSDKIHHHHHHMSAFSVEKIGLQDSQQFSKLFIDYLAQQEHIQPLYTFYPDMAGLETAIEKRSKQPINRTVLVERLKAQYKDLPVSEKVQQNIERLASEHTFTITTGHQLCLGTGPLYLILKTLSCVKLCEALKTKHADNEFVPVFWMASEDHDAAEINHFYVFGKKYTWETTQTGAVGRFTTTGISEVLETIKDIPAWLKDAYQSSVTLAEATRKVMHQLFAEYGVVVIDGDDAALKKEFTAVIEKELFEQPAVAVMNQTNRSIERHGYSIQVNPRDINLFYVKDSLRERIEKQGERFVVLHTDVSFSAGEIKKEVADHPERFSPNVVLRPLYESTILPDIAYVGGPGEIAYWLQLKEVFAVYNTFLPAIFPRMFSGVITKQQCVKLEKAHVTVAELFLSEFDLKQVVVSRSIQEEISIEAEAGKITAAFDTIASIAATVDGSLQSWAQAEKAKALKQLEDIEKKLRKAEERKHDDVIKSVLGIRDKILPNGKLQERQESVFTFLVNDAQLIEKLYQSLDPCTFNIQMCCYE, MGSDKIHHHHHHMSAFYDLYETPDPNDTGEKQPLHARIVPSGTYSKKDFIERVSRHQPFPHNIIEGVLGAVVDELAEALADGYIVELGELGHFSISLKCTHKVMTKKEIRAESIRFDNVHLRTSKEFKKKIKREIELERVENSNEKTHNAKISIEDRLQMLQEFLKKNGGITRIEYSRLTGLPRLKAIDDLNTFIKEGTLRKRGAGRTVFYVWKQKE, MGSDKIHHHHHHMSAQVQDLTPIKGVTYYYPPHDAVLVFKDGAAEIPYGGLPVPLLEEDYASLDGEPSYDAVGRGVYQTLRTNPDCIHCAAYATLLRDAYPHYLAELASHAIMLDSKDVEVPYIDRKIVSLKVLSLLEPDNAGLPLEIGRAYLDRGLRLSALHMSTVSIYRAEHFLRRALELTPEDGRALRLLGEVCYLLGKYEEAASCWLDTLDLADADEAERFRVRLARISEGRLPLIAPVDYLEAIGAAFTCFHTGDYEEAVAILQDVLMDGIFCAEFPIADIHCVIGKSFVQLDMPRYAEESFRAALQLDPAHEESLACLRKVTGEE, MGSDKIHHHHHHMSDIVIKAENLGKKYIIGHQAENGRYQALRDVLMHNAQTLWNKTKDLAKGNPLIHGDTLEEVWALKDVSFEIRRGEAVGIIGRNGAGKSTLLKILSRITDPSAGRVTIDGRVASLLEVGTGFHPELSGRENIYLNGTILGMSRKEINQKFDEIVDFAGIEKYLDTPVKRYSSGMYVRLAFAVAAHLEPEILVVDEVLAVGDAEFQKKCLGKMGDVTKEGRTVLFVSHNMVALSALCFRSINLDSGKIIYNGHVDTGVLIYMNGLSNIDNPISYKTRSATGTGEMKIINSFLLRNGKPTLSNVACGDKVDICIEFECCTEKPRFHFALDIYNSKGNRIAYCNSLYTMGVSWVQLPKIFLAKCSFPKLPFFPDEYRVDISIHCNDERADYLQGALSLKVYEGDFYGSGKIPPISGASPIMLLEHKWTIDN
